The sequences below were run on MS2 coat protein (assay: apparent KD of MS2 coat protein; higher = weaker reporter binding). Details: Eterna round: R107; input ligand: theophylline 2 mM.
Method in brief: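 On-chip transcription from Illumina sequencing clusters produced the designed RNA switches. These were titrated with SNAP-549-labelled MS2 coat protein (twofold steps, 0.7 or 1.5 nM to 3 µM) in 100 mM Tris-HCl pH 7.5, 80 mM KCl, 4 mM MgCl2, with or without constant ligand. The apparent KD given is the per-design median of normalised cluster binding-curve fits.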

**Q.** How did the “apparent KD of MS2 coat protein” value turn out when “UAUCGACACUGAAGGAGCGAGAUGACAAACAUGAGGAUCACCCAUGUUAUGGGUUGUUAAUCUCAGGUAGGUCGCAGUGGUCGCA [Same State Arginine B GF 18]” was run?
**A.** Its value is 108 nM.

**Q.** Which “apparent KD of MS2 coat protein” value does the source give for “UCGUUUUAGUCGGCCGCCACUGUAUGCAUGUUUAACAUGAGGAUCACCCAUGUCCCGUACUAUAACAGGACCGGGACGUAAUAGA [JR_SSTryptoB_Sub006]” here?
**A.** Its value is 936 nM.

**Q.** Which “apparent KD of MS2 coat protein” value does the source give for “CUAUGUAUAUAUGCGAAAGCUACGUGUUGACGAGGACCGGUACGGCCGCCACUCGACAUGAGGAUCACCCAUGUAAUAUAUAUAG [BMP_BFE]” here?
**A.** Its value is 300 nM.

**Q.** How did the “apparent KD of MS2 coat protein” value turn out when “UCGGGAACAUGAGGAUCACCCAUGUCAGAAGGAGCGCUGAGAGAAGCAGGUAGGUCGCUGACGUAGGAGCUCUCUUCCUAUACGC [Exclusion - Arginine A]” was run?
**A.** Its value is 35.4 nM.

**Q.** With “AUGUAGAACCGAAGGAGCGCGAUGACAUGAGGAUCACCCAUGUAUUUGUGGUGGCUUCGAUCGCAGGUAGGUCGCGGAAGUAGUA [#04 Exclusion - Arginine B]” as the sequence, how does the “apparent KD of MS2 coat protein” value read?
**A.** Its value is 346 nM.

**Q.** With “AAUUGAAACAGAGGUAUAUACGGACAUUACCGAGGACCGGUACGGCCGCCACUCGACCUAAAACAUGAGGAUCACCCAUGUAGCA [theeternabot_exclusion_MS2_Trp_A_20]” as the sequence, how does the “apparent KD of MS2 coat protein” value read?
**A.** The value was 13.8 nM.

**Q.** “ACAUGAGGAUCACCCAUGUUAAACACAGAAGGAGCGUGAAGGAACACAGGUAGGUCGCUGUACUUAUUGAGUAUUCACUCGAUAC [JR_Nu_SSArginiA_Sub028]” was tested. Which “apparent KD of MS2 coat protein” value did it give?
**A.** The value was 12.8 nM.

**Q.** For “AUUCAUGGAAACAUGACAUACAUAACCGGUCGAGGACCGGUACGGCCGCCACUCGUUUGGAGGCACAUGAGGAUCACCCAUGUUA [SS Tryp A #9]”, which “apparent KD of MS2 coat protein” value is on record?
**A.** Its value is 28.2 nM.

**Q.** How did the “apparent KD of MS2 coat protein” value turn out when “GGGCCCGGGCGCGAGCCCGGGCCCAUUGAUACCAGUGAUAUAUAACGCCCUUGGCAGCGAAUCCUAACAUGAGGAUCACCCAUGU [5.G]” was run?
**A.** Its value is 71.8 nM.

**Q.** For “GUGUGCGGCACGGCCGCCACUGCGGUGGUGUGACAUGAGGAUCACCCAUGUUGUCAUGCGGCCCUUAGGACCGGGUGGCGUGCAC [#1 Exclusion - Tryptophan B Attempt #17 (HarryS)]”, which “apparent KD of MS2 coat protein” value is on record?
**A.** Its value is 50.4 nM.

**Q.** With “AGAAUAUAGUCGGCCGCCACUCUACAAACAUGAGGAUCACCCAUGUUCACAUAGUGGAAACACAUGAGGACCGGGACAUAGGCAU [#17 Same State - Tryptophan B]” as the sequence, how does the “apparent KD of MS2 coat protein” value read?
**A.** Its value is 18.3 nM.

Same assay, conditions: Eterna round: R107; input ligand: tryptophan 2.4 mM

**Q.** For “UGUAUGGACUGAAGGAGCGGUAGAUAGCUUGAGGAUCACCCAAGUAAUAAGGCGAAAGCCUACCAGGUAGGUCGCAGUCCAUACU”, which “apparent KD of MS2 coat protein” value is on record?
**A.** The value was 27.9 nM.

**Q.** “AACCGAGGCUAUCCUCUCCGACUAUGUGAUACCAGAAUAAUUUUAUUCCCUUGGCAGCAUGACAUGAGGAUCACCCAUGUCUCUU [SSTheo A #10]” was tested. Which “apparent KD of MS2 coat protein” value did it give?
**A.** Its value is 15.9 nM.

**Q.** “AGCGCUGUGCAUGAUACCAGCUACAUGAGGAUCACCCAUGUGCGUCAGAAAUGACUGUGUAGCCCUUGGCAGCAUAAAGCAUGUA [Exclusion - Theophylline B (Freestyle 8)]” was tested. Which “apparent KD of MS2 coat protein” value did it give?
**A.** Its value is 19.6 nM.

**Q.** Which “apparent KD of MS2 coat protein” value does the source give for “UGACAUUGCUCAGAUACCAGACAUGAGCAUCAGCCAUGUACCAAGAGUACAUAUUAAAAUGUCCCUUGGCAGCUGAGCAAUGUCU [Mod of Eli's TheoBX5 #AlternateMS2 v1]” here?
**A.** Its value is 11.8 nM.

**Q.** With “UUAAUCGUGCAUGAUACCAGUAUCCGUAGAUACAUGAGGAUCACCCAUGUCUGGUUGGAAUACCCUUGGCAGCAUGGGUUGAGGA [theeternabot_sameState_MS2_Theo_B_20]” as the sequence, how does the “apparent KD of MS2 coat protein” value read?
**A.** The value was 238 nM.

**Q.** Which “apparent KD of MS2 coat protein” value does the source give for “UAAUAGGUCCAGAACGUACCAGGUGAUCAACGAGGACCGGUACGGCCGCCACUCGAAACAUGAGGAUCACCCAUGUAACUGGACC [|T'-M'-Trp-Ms2|_Design 2_ML]” here?
**A.** Its value is 61.4 nM.

**Q.** With “GACCGGUUAUAGCGCGAUUGUCUUGUGGAAGGAGCGCAGAGGGCUGCAGGUAGGUCGCCACAUGAGGAUCACCCAUGUCAGGAAA [Biraesge]” as the sequence, how does the “apparent KD of MS2 coat protein” value read?
**A.** The value was 19.7 nM.

**Q.** For “UUUUAAAGCAUGGCGUAUCGGAAAACCGAUACCAGUACAGAAAUGUACCCUUGGCAGCGGCAUUUUACAUGAGGAUCACCCAUGU [Ex Theophylline A 2]”, which “apparent KD of MS2 coat protein” value is on record?
**A.** Its value is 14.5 nM.

**Q.** For “UUAUAUUCUCAAUCGCCAUGUGCUUUAGAUACCAGUCUGAUAAAUGACCCUUGGCAGCUAGAGACAUGAGGAUCACCCAUGUCUU [theeternabot_exclusion_MS2_Theo_A_8]”, which “apparent KD of MS2 coat protein” value is on record?
**A.** Its value is 11.2 nM.

**Q.** With “UAGAUAGAGGGAAGGAGCGCAGUAACAUAACAUGAGGAUCACCCAUGUAAGAAAUUAAUAAUGCAGGUAGGUCGCCCAAGAUGAU [#10 Same State - Arginine B]” as the sequence, how does the “apparent KD of MS2 coat protein” value read?
**A.** Its value is 13.9 nM.

**Q.** Which “apparent KD of MS2 coat protein” value does the source give for “CACGCACGAUCGGCCGCCACUCGUGUAGCUUACAUGAGGAUCACCCAUGUAUGUUCAUUCAUAUAGAGGACCGGGAUCGUGCGUG [#05 Same State - Tryptophan B]” here?
**A.** Its value is 11.7 nM.

**Q.** For “UGUAUGUGAUCUGAUACCAGAGUUGAUAACCUGAGGAUCACCCUGGUAAGGCGAAAGCCACUCCCUUGGCAGCAGAUCGCAUACU”, which “apparent KD of MS2 coat protein” value is on record?
**A.** Its value is 101 nM.

**Q.** Which “apparent KD of MS2 coat protein” value does the source give for “AGUCUUAAUGGAAGGAGCGCAGUCAUAACAUGAGGAUCACCCAUGUCGAGGUGAGGGUCAUUGCAGGUAGGUCGCCAUACUAGGA [Same State - Arginine B (Freestyle 2)]” here?
**A.** The value was 131 nM.

**Q.** With “CAAUAGAUAGCGGCCGCCACUUACUCAUGAGGUAACAACAUGAGGAUCACCCAUGUUUGAGGAUCAAGGACCGGGCUAUUUAUUG [AstrosSSTryB#7]” as the sequence, how does the “apparent KD of MS2 coat protein” value read?
**A.** The value was 19.1 nM.

**Q.** With “GCGAUGGAGCGAAGGAGCGGCUGUGACUACAUGAGGAUCACCCAUGUACGAUUGUAAGGUAGCCAGGUAGGUCGCGCUCCAUCGC [SSAB NP+V+V2 #18]” as the sequence, how does the “apparent KD of MS2 coat protein” value read?
**A.** The value was 15.8 nM.

**Q.** With “UCGGACAUGAGGAUCACCCAUGUAAAUCCUCGAGGACCGGUACGGCCGCCACUCGAACGAGUGGCGCGCGAGCGCGCGCUCGCGC [aGa]” as the sequence, how does the “apparent KD of MS2 coat protein” value read?
**A.** Its value is 36.9 nM.

**Q.** “GCACCAGGUACGGAUACCAGAGCAAGCCAAAUGAGUGAACAUGAGGAUCACCCAUGUUUGCUCCCUUGGCAGCCGUACCUGGUGC [ETB NP+V+V2 #11 +-Same Structure]” was tested. Which “apparent KD of MS2 coat protein” value did it give?
**A.** The value was 9.35 nM.

**Q.** “UAUCGACACUGAAGGAGCGAGAUGACAAACAUGAGGAUCACCCAUGUUAUGGGUUGUUAAUCUCAGGUAGGUCGCAGUGGUCGCA [Same State Arginine B GF 18]” was tested. Which “apparent KD of MS2 coat protein” value did it give?
**A.** The value was 85.7 nM.

**Q.** Which “apparent KD of MS2 coat protein” value does the source give for “AAGUCAGGAGGCGAUACCAGUUACGACAUGGCCAGUUACAUGAGGAUCACCCAUGUGCGGAACCCUUGGCAGCGCUUACAUCGCU [theeternabot_exclusion_MS2_Theo_B_1]” here?
**A.** The value was 24.4 nM.

**Q.** With “UCGGGAACAUGAGGAUCACCCAUGUCAGAAGGAGCGCUGAGAGAAGCAGGUAGGUCGCUGACGUAGGAGCUCUCUUCCUAUACGC [Exclusion - Arginine A]” as the sequence, how does the “apparent KD of MS2 coat protein” value read?
**A.** The value was 25.4 nM.

**Q.** Which “apparent KD of MS2 coat protein” value does the source give for “AUGUAGAACCGAAGGAGCGCGAUGACAUGAGGAUCACCCAUGUAUUUGUGGUGGCUUCGAUCGCAGGUAGGUCGCGGAAGUAGUA [#04 Exclusion - Arginine B]” here?
**A.** Its value is 211 nM.

**Q.** With “CUACAUGGGCUCGAUACCAGUCAGCUCUCGCGUCUCUCAGACAUGAGGAUCACCCAUGUUGACCCUUGGCAGCGACGAUGUAGGC [theeternabot_exclusion_MS2_Theo_B_46]” as the sequence, how does the “apparent KD of MS2 coat protein” value read?
**A.** The value was 83.9 nM.

**Q.** With “ACAUGAGGAUCACCCAUGUUAAACACAGAAGGAGCGUGAAGGAACACAGGUAGGUCGCUGUACUUAUUGAGUAUUCACUCGAUAC [JR_Nu_SSArginiA_Sub028]” as the sequence, how does the “apparent KD of MS2 coat protein” value read?
**A.** Its value is 13.3 nM.

**Q.** “GGGCCCGGGCGCGAGCCCGGGCCCAUUGAUACCAGUGAUAUAUAACGCCCUUGGCAGCGAAUCCUAACAUGAGGAUCACCCAUGU [5.G]” was tested. Which “apparent KD of MS2 coat protein” value did it give?
**A.** The value was 37 nM.

**Q.** Which “apparent KD of MS2 coat protein” value does the source give for “UGCGGACAUGAGGAUCACCCAUGUGCGGAUACCAGCAGCCGGCUCUGCCCUUGGCAGCCGCUACCCUUGCACGUUUAACGAUCCA [theeternabot_sameState_MS2_Theo_A_27]” here?
**A.** Its value is 50.1 nM.

**Q.** “GUGUGCGGCACGGCCGCCACUGCGGUGGUGUGACAUGAGGAUCACCCAUGUUGUCAUGCGGCCCUUAGGACCGGGUGGCGUGCAC [#1 Exclusion - Tryptophan B Attempt #17 (HarryS)]” was tested. Which “apparent KD of MS2 coat protein” value did it give?
**A.** The value was 46.5 nM.

— the supplement of paper PMC9170038
